Results published in the DeepSol protein solubility set.

Assay: soluble on expression in E. coli; label from the status in PepcDB or PDB records

Sequence | soluble on expression in E. coli
MHHHHHHGSTSLYKKAGSETLYIQGMAEFPASLLILNGKSTDNLPLREAIMLLREEGMTIHVRVTWEKGDAARYVEEARKFGVATVIAGGGDGTINEVSTALIQCEGDDIPALGILPLGTANDFATSVGIPEALDKALKLAIAGDAIAIDMAQVNKQTCFINMATGGFGTRITTETPEKLKAALGSVSYIIHGLMRMDTLQPDRCEIRGENFHWQGDALVIGIGNGRQAGGGQQLCPNALINDGLLQLRIFTGDEILPALVSTLKSDEDNPNIIEGASSWFDIQAPHDITFNLDGEPLSGQNFHIEILPAALRCRLPPDCPLLRSTHHHHHH | soluble
MGSDKIHHHHHHLKAAIVTHLDQAPIYGDFPAPKPAPKQVLITVLASSVNQRVRSQADGSHYTKTPELPFIPGLDGVGRTSDGQLVYFLTRDPKFGALAEQTVTQQQLMFPLPEDADPAQIAASVNPAMAGWMALRVKAGQVVGKRVLVLGATGAAGTAAVQIAKTMGAAHVAGVGRNPDKLAALSDLGADTTVQLGDTAALAALPPADIVLDFLWGAPSATVMMTLLKARRDHAAKLIWIEIGGAAGPTLSLPAAALRSTGLTLVGSGQGSLTLADYQRELPALFTALTAGKFVTPTTVLSLSQVHDHWQDRGAARLVFQP | not soluble
MITMIYKGNRAAWAYIVARTKVMKSRLLKPEDFRKLLNMEFDEIVRYIGETEYKKEIDELGYKFTGPRLLDHALYANLARTYRKLIEVSFGASKFLIMKYLEKWDVWNIINIIRGKMANVQPEVVDDILVPAGERDMDFWKTLLVKDIEEIVKSFEGTPYYEPLSKIGSEDMSKIEDGLYKVYYRELLKLNPSDFAMKLFLDFIKMEIDIRNVKTLLRLKAEDATPDEIMECTIPGGYELTEEELRKLAAMPIDEMIKALEGYWFWNDVQIEGKEVAAVEIEFDKVWIKTISKRASNYPLSILPVLQYIVLKKVEVDNLRVLGWGKYYGLPSEEIERQMVIL | not soluble
MAHHHHHHMGKAAKGRTAMPGKLDTTEADKRTPKSIIIYRGEVGIHVRSLMHEWRNVFLPWSSKKLHGKNKSLKDFLAVAATFSASHLQLFTAPSQGTSLRIMRFFNGPTLSFRVLSFTLHKEIVAKQRRPVAVDRAAWEVAPIVVLNNFTHPDLAHRAEVPLLTATFKALFPSLNVQTIQSSEIQRICLFHYDHVEHVVEVRHYYINARTVGVTKTVKKLLENRRPTKLGTLESIDEVLDREDAWSDTDGEGEEVPLVQPFRQHREQCRVKLQEIGPRMTLQLSKVENGFAGGEVIYHRTEKKTLREVQVNASKVRARKTEKAKRRALQDENVQRKRQKREDKLERKHQRREAAAEAQQANPFEVAHGDGDGDGYAAGDEE | soluble
MDSDLKKVQKNSDQKQVSKSKTATAPTEPFNSKATELPSILKPKFPSDKVLKKKKSGDMFDLVGQIVIDIVDDNPDDDDRQDEATTVDTVQEGIGATVDVTLVEDVAEKAHEPASTPNVADRLQKPVAKDDNSAPVEEANRKKKEGKDPKNSEEAKKNSKKGKNGTARRSALKGVTIPPVAASLPCPPPPPPLSERKKNVGPKPCVGPAQKNLSSQRKHSSKRNRKGLLRNVAKLWGRKSDGIANPTKAMLSKKYVPPDYGVNPVDFMPDLECYFSKNDITVRDKNKCSKGEVFVEKLPFWLARLPSDDDIPKAQIQAHRPLKQAFEGNPSLLLPKCPRTLPFCEPDSDTLEKFKQVDKQMGTDVPEQASKRLCTNTFYGTLMFEKDKSASEEVKKKKEEPKLKSLGEESKLETKPKPYDFLQKKSTKTTGERGRQKPQLQKVPPQKLETGANVQKVKKMSARGLKVEMYYKLAEKNEAETSDVSILIDGHKRKFAVICNGIGREMVDLHYDSKKFPRIFSRERHLYVMFSESTSDGFRLTFGATEREQFLRIMHSLGCLLDTAIVKFSQQSSSSQPPPMRRDSTAVFNNSYNQYTSFQQASQPRVFSTIKLELSGDSCNSAFQPSQPTGFPDNQLLTIKKSSSNQISLSVEVADKCIQTEDLVDLLADDEYCMRKALRKMIENPSFIKAVAAAENTLQYIPQAEQEGLEDVTEPPINDIFFDRFHQPQLEQHDSVPED | soluble
MAHHHHHHMRTFSRTARITSSAACVGRFEHQGVSRDAVLARWSLQVVKPNAMKTGGLIGKGMKFASPLGPSGWATRNSGTGSTVLDVNWDLRERMDYYVHYSVPSTWTVVEHVSDNSVAIQSKPPVCDSPGAEGPTVHGFSLNCFAYKQKVKEPDCEKLLSLFLHRFDASVSNSLAVLSKASGRGNGVICGTAKPEQDISEVLANRLECAVAEITFTPAVGEPLAHGLCRAFYNSNRRFHYVVVVAVPEDEFTLSKDLLTHALLAVVESRVEAAPKGT | soluble
MWYHRLSHLHSRLQDLLKGGVIYPALPQPNFKSLLPLAVHWHHTASKSLTCAWQQHEDHFELKYANTVMRFDYVWLRDHCRSASCYNSKTHQRSLDTASVDLCIKPKTIRLDETTLFFTWPDGHVTKYDLNWLVKNSYEGQKQKVIQPRILWNAEIYQQAQVPSVDCQSFLETNEGLKKFLQNFLLYGIAFVENVPPTQEHTEKLAERISLIRETIYGRMWYFTSDFSRGDTAYTKLALDRHTDTTYFQEPCGIQVFHCLKHEGTGGRTLLVDGFYAAEQVLQKAPEEFELLSKVPLKHEYIEDVGECHNHMIGIGPVLNIYPWNKELYLIRLFKEKQNTVNRQWNSSLQCDIPERILTYRHFVSGTSIEHRGSLI | not soluble
MVPQTGRAARATRESGRQTRDALFTAATELFLEHGEGVPITQICAAAGAHPNQVTYYYGSKERLFVEVACAAVLRAGKRAEDDAATAETVGDYTEKLVGSLLGPGAPSVELFTSAMLMTGRRSELRDLITDTLRTLHSSGEVALIRTLMRTGWQLRAGIDVESKAFWSAIFGLVIQKTATGESFGYSLEEAVAVIFANLQIPETVRNTSID | soluble
MKRIILSIVWGLLTGWAAVPCLWAQSRTGTADREIWVKTLVRLADPVLSNLANETLKKEMPYESLAPNRQRFSYLEAVGRTVCGIAPWLELGEDDTPEGQLRKKYIELTVKGISNAVNPSSPDYLIFGEPSQPLVDAAFLAEGLLRAPKQLWGNLSPAARKQVVTELKRSRVIKPNESNWLLFASIVEAALQEFTGECDTTRLNYGVRKFRDLWYKGDAQYGDGAEFHLDYYNSFVIHPMLTDVLVVMQKHRMPESEFLNVQQKRLGRYAEQLERFISPEGTYPVIGRSIVYRTGVFHALGQAALLHLLPQQIVPAQVRCGMTKVIENQFRSAANFDTKGWLKIGFSGNQVQMSESYINTGSTYLCLTGFLPLGLPADDPFWSAPPAEWTNLKAWSGKEMPADHSLLEHHHHHH | not soluble
PKLSQDEIDDLKDVFELFAFWDGRDGAVDAFKLGDVCRCLGINPRNEDVFAVGGTHKMGEKSLPFEEFLPAYEGLMDCEQGTFADYMEAFKTFDREGQGFISGAELRHVLTALGERLSDEDVDEIIKLTDLQEDLEGNVKYEDFVKKVMAGPYPDK | soluble
MGKLFGTDGVRGIVNKELTPELVLKLSKAIGTFFGKNSKILVGRDVRAGGDMLVKIVEGGLLSVGVEVYDGGMAPTPALQYAVKTLGYDGGVVITASHNPAPYNGIKVVDKDGIEIRREKENEIEDLFFTERFNTIEWSSLTTEVKREDRVISTYVNGILSHVDIEKIKKKNYKVLIDPANSVGALSTPLVARALGCKIYTINGNLDPLFSARQPEPTFDSLKETAEVVKTLKVDLGVAHDGDADRAIFIDSEGRVQWGDRSGTLLSYWASVKNPKAIKKIVTAVSSSSLVEEYLSKYNIQVDWTKVGSVDIAHKVADENALAGFEENGGFMYPPHQYVRDGAMSFALMLELLANENVSSAELFDRLPKYYLVKTKVDLKPGLMVEEIYKKILEVYSTSSVKAITIDGVKIIGKDFWFLVRKSGTEPIIRIMAEAKDENVANNLVNELKKIVEGK | soluble
MSLIPVVLSGGAGTRLWPVSREGQPKPFMRLPDGQTLLGKTYRRAAGLLAGHGEIVTVTNREHYFQSKDQFHAARLGRHRGHFILEPTGRNTAPAIAVAALGLQAEHGDAAVLVVMPADHLIRNEEAFREAVGHAARLAVAGHLVTFGVVPDAAETGFGYIELGDRLDEQGAAKVRRFVEKPDEETRRRYVESGGFLWNSGMFCFTASTLVDELAQHAPALLEQARACLAASAAVKMADGIQHELAGEGFAALPDISIDYALMERSARVAVVPAAFDWSDIGSWGAMSALLDADAEGNRGSGDTLFVDTRNTFVQSDGRLVATVGVDDLVVVDTSDALLIARADRVQEVRRVVQRLKDERHEAYRLHRTVNRPWGSYTVLEEGPRFKIKRIVVRPGERLSLQMHHHRSEHWIVVQGMARVTNGDGARLVNSNESTYIPAGHRHRLENPGVIDLVMIEVQSGEYLGEDDIVRFEDQYGREGHHHHHH | not soluble
